For one test, the target named is T1, murine GPRC5D (murine, UniProt Q9JIL6 1-344).
T1 construct: whole, on cells
T1 sequence (looked up): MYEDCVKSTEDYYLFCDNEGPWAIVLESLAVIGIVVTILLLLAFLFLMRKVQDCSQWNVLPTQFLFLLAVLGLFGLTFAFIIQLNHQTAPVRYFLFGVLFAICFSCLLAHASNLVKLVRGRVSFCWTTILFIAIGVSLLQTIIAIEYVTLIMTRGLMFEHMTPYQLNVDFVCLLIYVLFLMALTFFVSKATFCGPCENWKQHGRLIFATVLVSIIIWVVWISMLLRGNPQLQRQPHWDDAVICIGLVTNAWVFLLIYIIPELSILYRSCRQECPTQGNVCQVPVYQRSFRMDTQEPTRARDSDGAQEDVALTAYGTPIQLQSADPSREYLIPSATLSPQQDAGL
Description: cell ELISA on stably transfected CHO cells. Here is the method:
(§1) Stable transfected CHO clones expressing either human GPRCSD or cynomolgus GPRCSD or murine GPRCSD or human GPRCSA were used to analyze the binding of potential lead candidate antibodies as IgGs. In detail, 10⁴ cells (viability≥98%) were seeded into 384 well-microtiter plates (BD Poly D-Lysin, #356662, volume: 25 μl/well) using fresh culture medium. After overnight incubation at 37° C., 25 μl/well dilutions of antibodies were added (15×1:3 dilutions in 1×PBS, assay conc. starts at 30 μg/ml) to the cells for 2 hours at 4° C. After one washing step using 90 μl/well PBST (10×PBS, Roche, #11666789001+0.1% Tween 20), cells were subsequently fixed by the addition of 50 μl/well 0.05% glutaraldehyde (Sigma Cat. No: G5882 in 1×PBS) for 10 min at room temperature (RT). After three additional washing steps using 90 μl/well PBST, secondary antibodies were added for detection: for human antibodies goat anti-human Ig a chain antibody HRP conjugate (Millipore #AP502P) diluted 1:2000 in blocking buffer (1×PBS (Roche #11666789001)+2% BSA (Bovine Serum Albumin Fraction V, fatty acid free, Roche, #10735086001)+0.05% Tween 20) was used (25 μl/well). […] After incubation for 1 h at RT and three additional washing steps using 90 μl/well PBST, 25 μl/well TMB substrate was added (Roche order no. 11835033001) for 10 min and color development to final ODs was determined by measurement at 370 nm/492 nm.
(§2) Cynomolgus crossreactivity was also detected for all other antibodies but at lower levels compared to 10B10 and 07A04 (FIG. 9). No significant binding to CHO cells expressing murine GPRC5D and no binding to CHO cells expressing the human version of GPRC5A was detected (FIG. 9).

The target of a further test is T2, human GPRC5A (human, UniProt Q8NFJ5 1-357).
T2 construct: whole, on cells; also called hu GPCR5A; GPRCSA
T2 sequence (Q8NFJ5 whole entry): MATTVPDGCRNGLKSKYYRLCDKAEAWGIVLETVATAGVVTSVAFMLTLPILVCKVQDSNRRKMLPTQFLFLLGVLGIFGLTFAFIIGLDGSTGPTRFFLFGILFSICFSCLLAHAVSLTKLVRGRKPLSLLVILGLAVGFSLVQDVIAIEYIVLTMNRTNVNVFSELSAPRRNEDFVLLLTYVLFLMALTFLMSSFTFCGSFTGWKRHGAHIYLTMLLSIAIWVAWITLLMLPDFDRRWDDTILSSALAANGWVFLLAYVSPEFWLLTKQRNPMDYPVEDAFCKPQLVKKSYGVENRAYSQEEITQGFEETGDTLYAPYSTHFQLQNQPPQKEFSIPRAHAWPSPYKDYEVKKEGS
Description: cell ELISA on stably transfected CHO cells. Here is the method:
as §1, §2

A further test addresses T3, human GPRC5D (human, UniProt Q9NZD1 1-345).
T3 construct: also called G protein-coupled receptor class C group 5 member D; hu GPCR5D
Description: cell ELISA, CHO cells stably expressing human GPRC5D. How it is done:
as §1
A general note: An ELISA detects its analyte on a solid surface through an enzyme-linked reagent.

The target of the next test is T4, cynomolgus GPRC5D (cynomolgus).
T4 construct: whole, on cells; also called cyno GPRC5D; CHO cy GPCR5D
Kind of test: cell ELISA, CHO cells stably expressing cynomolgus GPRC5D. Here is the method:
as §1

Several values for one entry are separate records, joined by “and”; a condition that tells them apart may be missing. Equal values may be shown once.

T3 sequence (Q9NZD1 whole entry): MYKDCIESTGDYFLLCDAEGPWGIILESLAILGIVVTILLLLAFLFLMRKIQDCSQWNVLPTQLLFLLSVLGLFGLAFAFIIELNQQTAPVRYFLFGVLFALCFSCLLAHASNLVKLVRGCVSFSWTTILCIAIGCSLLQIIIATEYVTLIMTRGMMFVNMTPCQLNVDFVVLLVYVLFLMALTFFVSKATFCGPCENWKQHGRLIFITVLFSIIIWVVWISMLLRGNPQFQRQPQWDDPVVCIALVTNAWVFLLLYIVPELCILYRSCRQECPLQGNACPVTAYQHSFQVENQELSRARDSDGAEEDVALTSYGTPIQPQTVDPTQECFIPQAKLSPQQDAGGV

B1: 10B10 IgG (antibody, V domains shown)
VH: EVQLVESGGGLVQPGRSMKLSCAASGFTFTNFYMAWVRQAPTKALEWVASINTGGGYTYYRDSVKGRFTVSRDNTRSTLYLQMDSLRSEETATYYCARHLTYYGRYYYFDYWGQGVMVTVSS
VL: DIQLTQSPHSLSASLGETVSIECLASEGISNYLAWFHQKPGKSPQLLIYYASSLQDGVPSRFSGSGSGTQYSLKISNMQPEDEGVYYCQQGYKYPLTFGSGTKLEIK
A word on the EC50: it is the midpoint of the concentration-response curve. With B1, the binding result with murine GPRC5D and with human GPRC5A was “no binding (tested: assay conc. starts at 30 µg/ml)” throughout. Also, the concentration for a half-maximal effect (EC50) with human GPRC5D is 0.0163 µg/mL and 0.109 nM; with cynomolgus GPRC5D, 0.012 µg/mL and 0.08 nM.

B2: 07A04 IgG (antibody, V domains shown)
VH: QVTLKESGPGILQPSHTLSLTCSFSGFSLSTYGMGVNWIRQPSGKGLEWLASIWWNGNTYNNPSLKSRLTVSKDTSNNQAFLKVTSVDTADTATYYCVHTRGIIRGRGLFFDYWGQGVMVTVSS
VL: DVQMTQSPYNLAASPGESVSINCKASKSISKYLAWYQQKPGKANKLLIYDGSTLQSGIPSRFSGSGSGTDFTLTIRSLEPEDFGLYYCQQHNEYPLTFGSGTKLEIKR
notes: the format as tested is not certain
On to B2, for which the binding result in the test with murine GPRC5D and with human GPRC5A was “no binding (tested: assay conc. starts at 30 µg/ml)” in each case. The EC50 is 0.0243 µg/mL and 0.162 nM with human GPRC5D; 0.115 µg/mL and 0.764 nM with cynomolgus GPRC5D.
